Fewer inactive variants are shown than the library holds.
B1: TPR 5TU (parent)
chain: GGAUCUUCUCGAUCUAACAAAAAAGACAAAUCUGCCACAAAGCUUGAGAGCAUCUUCGGAUGCAGAGGCGGCAGCCUUCGGUGGCGCGAUAGCGCCAACGUUCUCAACUAUGACACGCAAAACGCGUGCUCCGUUGAAUGGAGUUUAUCAUG

Variants of: B1
Test: polymerase ribozyme fitness, log enrichment relative to wild type (log ratio); higher = more active; in vitro selection for triplet polymerase activity
In short: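 Mutant libraries of both subunits of a heterodimeric triplet polymerase ribozyme were PCR-built, transcribed, and selected once in triplicate, with frozen incubation at −7 °C and capture of gel-excised extended constructs on streptavidin beads before RT-PCR. Illumina sequencing of input and output libraries was filtered to genotypes with ≥10 input reads and ≥1 read per output. Fitness is the logarithm of genotype enrichment over wild-type enrichment, using inverse-variance-weighted replicate averages. The logarithm is base 2.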

For G83U G100U, which “polymerase ribozyme fitness (log ratio)” value is on record?
The value was -3.9.

For U82G G86U, which “polymerase ribozyme fitness (log ratio)” value is on record?
Its value is -1.46.

With U82G G86A as the variant, how does the “polymerase ribozyme fitness (log ratio)” value read?
The value was -0.594.

Which “polymerase ribozyme fitness (log ratio)” value does the source give for G81A C95A A98U here?
The value was -0.289.

Which “polymerase ribozyme fitness (log ratio)” value does the source give for G83A U151A here?
The value was -3.69.

For U82C G88C C105U G141A C149U, which “polymerase ribozyme fitness (log ratio)” value is on record?
Its value is no more than -4.2.

Which “polymerase ribozyme fitness (log ratio)” value does the source give for G83C U90C A107C C116A U127C A150C here?
Its value is no more than -4.2.

Which “polymerase ribozyme fitness (log ratio)” value does the source give for G84A G124U here?
Its value is -0.556.

For G84A G124A, which “polymerase ribozyme fitness (log ratio)” value is on record?
Its value is -0.287.

For G83A A110C C123G, which “polymerase ribozyme fitness (log ratio)” value is on record?
Its value is no more than -4.2.

With G81A C103A as the variant, how does the “polymerase ribozyme fitness (log ratio)” value read?
Its value is -1.13.

Which “polymerase ribozyme fitness (log ratio)” value does the source give for G81A C85A here?
Its value is 0.102.

For G83C C116A U146G, which “polymerase ribozyme fitness (log ratio)” value is on record?
The value was -3.27.

With G81A C85A C149U as the variant, how does the “polymerase ribozyme fitness (log ratio)” value read?
The value was -0.877.

With U82A A89G C96G G128U as the variant, how does the “polymerase ribozyme fitness (log ratio)” value read?
The value was -4.05.

With G84A A150G as the variant, how does the “polymerase ribozyme fitness (log ratio)” value read?
Its value is -0.63.

Which “polymerase ribozyme fitness (log ratio)” value does the source give for G84A A150C here?
The value was -3.

Which “polymerase ribozyme fitness (log ratio)” value does the source give for G83U C149U here?
Its value is -1.76.

With G84A G133C G143U as the variant, how does the “polymerase ribozyme fitness (log ratio)” value read?
Its value is -3.92.

With G84A A97G C129A G152A as the variant, how does the “polymerase ribozyme fitness (log ratio)” value read?
The value was -4.

Which “polymerase ribozyme fitness (log ratio)” value does the source give for U82G C96U A137C here?
The value was -3.87.

For G81A G94C A106C A113U C116A G133A, which “polymerase ribozyme fitness (log ratio)” value is on record?
The value was no more than -4.2.

Which “polymerase ribozyme fitness (log ratio)” value does the source give for U82G U104C C116U C125U A138C here?
Its value is no more than -4.2.

Which “polymerase ribozyme fitness (log ratio)” value does the source give for G83C C125A U144A here?
Its value is -2.36.

With U82G G92U C131A as the variant, how does the “polymerase ribozyme fitness (log ratio)” value read?
Its value is -3.24.

For G83A C114U, which “polymerase ribozyme fitness (log ratio)” value is on record?
The value was -2.41.

For U82A U102G U144G, which “polymerase ribozyme fitness (log ratio)” value is on record?
Its value is -1.48.

For G83A C87U C123G A142G, which “polymerase ribozyme fitness (log ratio)” value is on record?
Its value is -2.09.

With G81A G86A U148A as the variant, how does the “polymerase ribozyme fitness (log ratio)” value read?
Its value is -3.94.

Which “polymerase ribozyme fitness (log ratio)” value does the source give for G83U C93U here?
The value was -2.69.

Which “polymerase ribozyme fitness (log ratio)” value does the source give for G84A A122G G140A G141A here?
Its value is no more than -4.2.

For U82C G94C C108A A110G A113G G140U, which “polymerase ribozyme fitness (log ratio)” value is on record?
Its value is no more than -4.2.

Which “polymerase ribozyme fitness (log ratio)” value does the source give for U82C U135C U146C here?
The value was -2.14.

For U82A U102G, which “polymerase ribozyme fitness (log ratio)” value is on record?
Its value is -2.54.

With G81C G140C as the variant, how does the “polymerase ribozyme fitness (log ratio)” value read?
The value was -3.7.

For G84A C114G G124A U134C, which “polymerase ribozyme fitness (log ratio)” value is on record?
The value was -3.53.

Which “polymerase ribozyme fitness (log ratio)” value does the source give for G84A C95G G141C here?
Its value is -0.311.

With G83C U148G G152A as the variant, how does the “polymerase ribozyme fitness (log ratio)” value read?
Its value is -3.67.

Which “polymerase ribozyme fitness (log ratio)” value does the source give for U82A G126A here?
Its value is 1.28.

For G81C C103U U134G, which “polymerase ribozyme fitness (log ratio)” value is on record?
The value was -2.49.

For G83U U151A, which “polymerase ribozyme fitness (log ratio)” value is on record?
Its value is no more than -4.2.

Which “polymerase ribozyme fitness (log ratio)” value does the source give for G83U G94U C95A here?
The value was -1.62.

With U82C C114U as the variant, how does the “polymerase ribozyme fitness (log ratio)” value read?
Its value is -1.99.

Which “polymerase ribozyme fitness (log ratio)” value does the source give for U82A C95A A97C C103U U134A here?
Its value is -3.46.

Which “polymerase ribozyme fitness (log ratio)” value does the source give for U82A A106U C116U G126U U145C here?
Its value is -2.88.

For G81A C85U C132A, which “polymerase ribozyme fitness (log ratio)” value is on record?
Its value is -2.23.

With G83A C87A as the variant, how does the “polymerase ribozyme fitness (log ratio)” value read?
Its value is no more than -4.2.

Which “polymerase ribozyme fitness (log ratio)” value does the source give for G81U C85A U139G here?
The value was -0.703.

With G83A G88U C125A G152U as the variant, how does the “polymerase ribozyme fitness (log ratio)” value read?
Its value is no more than -4.2.

For G81C G86A, which “polymerase ribozyme fitness (log ratio)” value is on record?
The value was -1.83.

Which “polymerase ribozyme fitness (log ratio)” value does the source give for G84A A106U G141U here?
The value was -0.79.

For G84A G88U C96G A113U U144G, which “polymerase ribozyme fitness (log ratio)” value is on record?
The value was no more than -4.2.

For G81U C95U, which “polymerase ribozyme fitness (log ratio)” value is on record?
The value was -1.63.

For U82G C95G G126C, which “polymerase ribozyme fitness (log ratio)” value is on record?
The value was -1.07.

For G84A C131A, which “polymerase ribozyme fitness (log ratio)” value is on record?
Its value is -2.79.

Which “polymerase ribozyme fitness (log ratio)” value does the source give for G84A C131G here?
Its value is -3.02.

With U82G as the variant, how does the “polymerase ribozyme fitness (log ratio)” value read?
Its value is 0.17.

Which “polymerase ribozyme fitness (log ratio)” value does the source give for U82C here?
Its value is -0.0678.

For U82A, which “polymerase ribozyme fitness (log ratio)” value is on record?
Its value is -0.0631.

With G81C C95A U134A U144C as the variant, how does the “polymerase ribozyme fitness (log ratio)” value read?
Its value is -2.86.

Which “polymerase ribozyme fitness (log ratio)” value does the source give for G81U C96U here?
The value was -1.85.

For G83C G136C, which “polymerase ribozyme fitness (log ratio)” value is on record?
Its value is -4.09.

With G83C G136A as the variant, how does the “polymerase ribozyme fitness (log ratio)” value read?
The value was -0.101.

Which “polymerase ribozyme fitness (log ratio)” value does the source give for U82G G84A U145C here?
The value was -0.385.

With G83C G136C U146G as the variant, how does the “polymerase ribozyme fitness (log ratio)” value read?
Its value is -3.41.

For G84A C96A A119U, which “polymerase ribozyme fitness (log ratio)” value is on record?
Its value is -1.11.

For G84A A147C, which “polymerase ribozyme fitness (log ratio)” value is on record?
The value was -0.0528.

For G84A G117U U139G U145C, which “polymerase ribozyme fitness (log ratio)” value is on record?
Its value is -0.527.

Which “polymerase ribozyme fitness (log ratio)” value does the source give for G83U G88U A150U here?
Its value is -3.49.

With G83U C87U A89C C123A C125U as the variant, how does the “polymerase ribozyme fitness (log ratio)” value read?
The value was -1.33.

Which “polymerase ribozyme fitness (log ratio)” value does the source give for G83A A97C U104A G136A here?
The value was -1.39.

For G83A C118A C129A, which “polymerase ribozyme fitness (log ratio)” value is on record?
Its value is -3.64.

With G83A A97U A98U A138U as the variant, how does the “polymerase ribozyme fitness (log ratio)” value read?
Its value is -4.07.

With G84A G143U as the variant, how does the “polymerase ribozyme fitness (log ratio)” value read?
Its value is -2.51.

Which “polymerase ribozyme fitness (log ratio)” value does the source give for U82G G84U C99U G128C here?
Its value is no more than -4.2.

Which “polymerase ribozyme fitness (log ratio)” value does the source give for G83U A142C U145C here?
Its value is -3.76.

With U82G C93A as the variant, how does the “polymerase ribozyme fitness (log ratio)” value read?
Its value is -2.46.

Which “polymerase ribozyme fitness (log ratio)” value does the source give for G81U C93U G94U A98G C131A A137U here?
The value was no more than -4.2.

With U82A U127C G152U as the variant, how does the “polymerase ribozyme fitness (log ratio)” value read?
Its value is -3.97.

With G83C C118A A142G as the variant, how does the “polymerase ribozyme fitness (log ratio)” value read?
Its value is -2.35.

With G83C G92A as the variant, how does the “polymerase ribozyme fitness (log ratio)” value read?
Its value is no more than -4.2.

For G83A A91C A142G, which “polymerase ribozyme fitness (log ratio)” value is on record?
Its value is no more than -4.2.

For G81A C87U G100C G133U G141U, which “polymerase ribozyme fitness (log ratio)” value is on record?
Its value is no more than -4.2.

From the RNAGym collection of RNA variant scans (doi:10.1073/pnas.2313332121)
